Publication PMC3631714 (Chembiochem : a European journal of chemical biology, 2012)

B1: Sam domain of the EphA2 receptor (EphA2-Sam) (domain or fragment, human, UniProt P29317 901-976, looked up)
chain: SEGVPFRTVSEWLESIKMQQYTEHFMAAGYTAIEKVVQMTNDDIKRIGVRLPGHQKRIAYSLLGLKDQVNTVGIPI
B2: Arap3-Sam wild-type (domain or fragment, human, UniProt Q8WWN8 1-80, looked up)
chain: MAAPQDLDIAVWLATVHLEQYADTFRRHGLATAGAARGLGHEELKQLGISATGHRKRILRLLQTGTEEGSLDPKSDSAME
B3: first Sam domain of Odin (Odin-Sam1) (domain or fragment, human, UniProt Q92625 691-770, looked up)
chain: ISGLRTLEQSVGEWLESIGLQQYESKLLLNGFDDVHFLGSNVMEEQDLRDIGISDPQHRRKLLQAARSLPKVKALGYDGN

Legend:
[1] = biological target: B3; assay: NMR titration
[2] = biological target: B3; assay: ITC
Arap3-Sam wild-type = biological target: B2; assay: SPR

Binder: B1
- binding result [1]: binds

Binder: B2
- Kd [2]: 370 ± 80 nM

Binder: B3
- Kd (Arap3-Sam wild-type): 2900 ± 400 nM
